From PMC9037914 (PLoS Pathogens, 2022)

T1: Plasmodium falciparum myosin A (P. falciparum, UniProt Q8IDR3 1-818)
T1 construct: also called PfMyoA; MyoA
T1 sequence: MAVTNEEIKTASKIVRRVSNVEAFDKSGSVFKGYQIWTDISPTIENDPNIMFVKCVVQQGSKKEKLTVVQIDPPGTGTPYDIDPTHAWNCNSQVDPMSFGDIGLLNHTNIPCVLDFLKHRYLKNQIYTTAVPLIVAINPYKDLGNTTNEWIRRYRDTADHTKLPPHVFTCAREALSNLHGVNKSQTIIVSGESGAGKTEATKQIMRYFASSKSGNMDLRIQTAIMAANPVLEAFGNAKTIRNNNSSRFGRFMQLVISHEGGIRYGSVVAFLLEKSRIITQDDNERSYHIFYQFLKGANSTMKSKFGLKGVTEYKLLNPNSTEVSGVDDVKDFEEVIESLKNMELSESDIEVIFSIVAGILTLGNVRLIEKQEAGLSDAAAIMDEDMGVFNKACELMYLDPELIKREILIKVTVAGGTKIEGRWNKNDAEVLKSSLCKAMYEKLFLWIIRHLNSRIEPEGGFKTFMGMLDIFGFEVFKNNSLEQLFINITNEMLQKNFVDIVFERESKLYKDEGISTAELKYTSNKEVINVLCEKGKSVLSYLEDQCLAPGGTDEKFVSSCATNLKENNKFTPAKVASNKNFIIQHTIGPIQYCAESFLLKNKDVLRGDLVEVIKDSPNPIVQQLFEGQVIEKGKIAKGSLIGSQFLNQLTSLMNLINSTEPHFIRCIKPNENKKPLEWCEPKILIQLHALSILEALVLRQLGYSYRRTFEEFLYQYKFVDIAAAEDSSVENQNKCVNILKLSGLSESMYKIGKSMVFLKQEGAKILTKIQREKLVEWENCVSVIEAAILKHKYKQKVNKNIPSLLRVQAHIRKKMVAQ

T2: MyoA:ELC:MTIP complex (P. falciparum, UniProt Q8IDR3;Q8IJM4;Q8I4W8)
T2 construct: also called PfMyoA with its two light chains; MyoA:MTIP:ELC complex; copies: + +
T2 sequence 1: T1 sequence
T2 sequence 2: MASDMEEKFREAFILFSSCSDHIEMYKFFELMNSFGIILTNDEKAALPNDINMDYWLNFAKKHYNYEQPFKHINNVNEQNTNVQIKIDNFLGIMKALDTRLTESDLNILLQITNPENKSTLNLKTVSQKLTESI
T2 sequence 3: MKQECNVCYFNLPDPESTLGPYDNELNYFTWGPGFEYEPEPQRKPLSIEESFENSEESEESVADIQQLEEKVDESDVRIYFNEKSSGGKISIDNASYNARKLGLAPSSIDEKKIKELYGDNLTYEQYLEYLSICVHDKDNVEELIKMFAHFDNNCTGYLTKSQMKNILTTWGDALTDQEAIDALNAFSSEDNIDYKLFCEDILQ

B1: Plasmodium falciparum actin 1 filament (natural protein)
chain: not shown
notes: source: polymerised with jasplakinolide
B2: Plasmodium falciparum essential light chain (natural protein)
chain: T2 sequence 2
notes: also called PfELC; ELC

Experiments:
Assay in all cases: cryo-EM structure
cryo-EM structure = molecular target: the molecule itself
[1] = molecular target: T1, Plasmodium falciparum myosin A; details: both partners purified
MyoA:ELC:MTIP complex = molecular target: T2, MyoA:ELC:MTIP complex; details: both partners purified

| Binder | binding result (cryo-EM structure) | binding result [1] | binding result (MyoA:ELC:MTIP complex) |
| --- | --- | --- | --- |
| B1 | binds | binds | binds |
| B2 |  | binds |  |
